{"source": "patent US12060433B2", "about": "“CD73 inhibitor and A2A/A2B adenosine receptor inhibitor combination therapy” (Incyte Corporation, priority 2020, dated 2024)", "molecules": {"B1": {"name": "CL25: chimeric anti-human CD73 monoclonal antibody, murine VH SEQ ID NO:26 and VL SEQ ID NO:27 with human IgG1 Fc (antibody, V domains shown)", "VH": "QVQLQQSGAELARPGASVKLSCRASGYTFTSYGLSWVKQRTGQGLEWIGEIYPGSGNTYYNEKFKGKATLTADKSSSTAYMELRSLTSEDSAVYFCARYDYLGSSYGFDYWGQGTTLTVSS", "VL": "DIVMTQSHKFMSTSVGDRVSITCKASQDVSTAVAWYQQKPGQSPKLLIYSASYRYNGVPDRFTGSGSGTDFTFTISSVQAEDLAVYYCQQHYNTPYTFGGGTKLEIK", "modifications": "human IgG1 Fc constant regions without entry"}}, "key": {"[1]": {"target": "T1, cell surface CD73 on A375 cells (Homo sapiens, UniProt P21589)", "T1 construct": "endogenous in cells; host or cells: A375", "T1 sequence (P21589 27-549)": "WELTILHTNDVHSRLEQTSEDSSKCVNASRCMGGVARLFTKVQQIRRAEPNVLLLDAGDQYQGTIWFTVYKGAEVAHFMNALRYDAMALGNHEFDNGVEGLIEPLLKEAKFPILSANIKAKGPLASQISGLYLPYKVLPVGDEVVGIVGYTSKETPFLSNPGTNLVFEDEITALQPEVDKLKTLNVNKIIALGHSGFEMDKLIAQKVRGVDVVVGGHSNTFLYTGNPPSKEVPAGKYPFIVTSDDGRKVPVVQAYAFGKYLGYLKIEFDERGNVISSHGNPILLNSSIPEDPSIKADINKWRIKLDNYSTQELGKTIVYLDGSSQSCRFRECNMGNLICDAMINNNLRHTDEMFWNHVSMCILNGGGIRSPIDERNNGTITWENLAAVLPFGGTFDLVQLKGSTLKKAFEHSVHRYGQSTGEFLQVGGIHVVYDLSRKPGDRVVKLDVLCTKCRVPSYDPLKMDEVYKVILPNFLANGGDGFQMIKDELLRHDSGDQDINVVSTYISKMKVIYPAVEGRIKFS", "test": "Binding to cell surface CD73 by flow cytometry (GMFI), A375 cells", "format": "cell-based", "conditions": "moderate levels of surface CD73", "procedure": "To test the binding of humanized and non-humanized CL25 clones to cell surface CD73, MDA-MB-231 or A375 cells were washed and added to 96-well plates at 5×10^4 cells/well. The cells were stained with the indicated concentration of antibodies for 30 minutes on ice (FIG. 2A and FIG. 2B). Next, the cells were washed and stained using goat anti-mouse secondary conjugated to phycoerythrin (PE) for 30 minutes on ice. The cells were then washed and analyzed by flow cytometry. Geometric mean fluorescence intensity (GMFI) of CD73 staining was graphed (FIG. 2A and FIG. 2B)."}, "[2]": {"target": "T2, cellular CD73 on A375 cells (Homo sapiens, UniProt P21589)", "T2 construct": "endogenous in cells; host or cells: A375", "T2 sequence (P21589 27-549)": "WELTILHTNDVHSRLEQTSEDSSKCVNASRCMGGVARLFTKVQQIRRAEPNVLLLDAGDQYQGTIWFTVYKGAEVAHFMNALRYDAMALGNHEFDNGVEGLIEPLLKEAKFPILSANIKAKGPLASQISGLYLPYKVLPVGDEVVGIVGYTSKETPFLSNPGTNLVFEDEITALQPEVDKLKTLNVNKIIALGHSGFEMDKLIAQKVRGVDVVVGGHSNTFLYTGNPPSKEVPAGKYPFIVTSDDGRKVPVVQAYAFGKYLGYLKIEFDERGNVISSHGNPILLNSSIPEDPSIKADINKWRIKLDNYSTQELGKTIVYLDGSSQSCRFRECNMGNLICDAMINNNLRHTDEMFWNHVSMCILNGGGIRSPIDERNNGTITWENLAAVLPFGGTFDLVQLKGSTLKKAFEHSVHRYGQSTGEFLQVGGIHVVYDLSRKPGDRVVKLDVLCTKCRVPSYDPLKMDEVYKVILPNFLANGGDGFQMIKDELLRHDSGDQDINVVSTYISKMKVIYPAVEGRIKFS", "test": "Cellular CD73 inhibition (AMP-Glo), A375 cells", "format": "cell-based", "conditions": "100 μM AMP, 3 hours", "procedure": "To measure ability of anti-CD73 antibody to inhibit CD73 activity on cells, A375 and MDA-MB-231 cells were washed with serum free RPMI media (ThermoFisher) and plated in 96-well plates at a concentration of 8×10^4 cells/well for A375 or 1×10^4 cells/well for MDA-MB-231. The cells were incubated with the indicated concentration of antibodies or APCP at 37° C. 5% C02 for 30 minutes (FIG. 3A, FIG. 3B, and FIG. 3C). Next, adenosine monophosphate (AMP) was added to a final concentration of 100 μM and cells were incubated an additional 3 hours at 37° C. 5% CO2. Plates were centrifuged for 1-2 minutes at 300 g and 25 μL of supernatant was transferred into a new 96-well plates. AMP-Glo Assay was used according to the manufacturer's instructions (Promega). Relative luminescence unit (RLU) is directly correlated with the AMP concentration in this assay. Results are depicted in FIG. 3A, FIG. 3B, and FIG. 3C. The ability of 3-[…] to inhibit CD73 activity on cells was evaluated as described in Example 3, above. Results are depicted in FIG. 8A and FIG. 8B."}, "[3]": {"target": "T3, cellular CD73 on MDA-MB-231 cells (Homo sapiens, UniProt P21589)", "T3 construct": "endogenous in cells; host or cells: MDA-MB-231", "T3 sequence (P21589 27-549)": "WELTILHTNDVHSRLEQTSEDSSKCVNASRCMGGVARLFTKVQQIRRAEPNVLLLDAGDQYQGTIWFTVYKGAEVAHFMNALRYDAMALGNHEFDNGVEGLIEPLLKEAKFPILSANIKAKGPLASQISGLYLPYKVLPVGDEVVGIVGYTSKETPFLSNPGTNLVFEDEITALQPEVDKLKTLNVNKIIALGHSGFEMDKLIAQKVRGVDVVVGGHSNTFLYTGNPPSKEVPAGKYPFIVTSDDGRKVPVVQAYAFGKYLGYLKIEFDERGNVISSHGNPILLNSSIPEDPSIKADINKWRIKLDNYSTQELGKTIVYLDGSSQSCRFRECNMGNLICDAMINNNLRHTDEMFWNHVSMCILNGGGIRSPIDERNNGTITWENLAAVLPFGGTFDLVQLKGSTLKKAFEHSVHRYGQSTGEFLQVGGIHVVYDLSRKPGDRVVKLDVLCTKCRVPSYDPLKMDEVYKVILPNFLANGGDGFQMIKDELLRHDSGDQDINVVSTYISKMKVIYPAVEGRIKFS", "test": "Cellular CD73 inhibition (AMP-Glo), MDA-MB-231 cells", "format": "cell-based", "conditions": "100 μM AMP, 3 hours", "procedure": "To measure ability of anti-CD73 antibody to inhibit CD73 activity on cells, A375 and MDA-MB-231 cells were washed with serum free RPMI media (ThermoFisher) and plated in 96-well plates at a concentration of 8×10^4 cells/well for A375 or 1×10^4 cells/well for MDA-MB-231. The cells were incubated with the indicated concentration of antibodies or APCP at 37° C. 5% C02 for 30 minutes (FIG. 3A, FIG. 3B, and FIG. 3C). Next, adenosine monophosphate (AMP) was added to a final concentration of 100 μM and cells were incubated an additional 3 hours at 37° C. 5% CO2. Plates were centrifuged for 1-2 minutes at 300 g and 25 μL of supernatant was transferred into a new 96-well plates. AMP-Glo Assay was used according to the manufacturer's instructions (Promega). Relative luminescence unit (RLU) is directly correlated with the AMP concentration in this assay. Results are depicted in FIG. 3A, FIG. 3B, and FIG. 3C. […] Results are depicted in FIG. 8A and FIG. 8B. […] Cells were incubated with the indicated concentration of antibodies or APCP at 37° C. 5% CO2 for 30 minutes. Next, AMP was added to a final concentration of 100 μM and cells were incubated an additional 3 hours at 37° C. 5% CO2. Plates were centrifuged for 1-2 minutes at 300 g and 25 μL of supernatant was transferred into a new 96-well plates. AMP-Glo Assay was used according to the manufacturer's instructions. […]"}, "[4]": {"target": "T4, human CD73 (Homo sapiens, UniProt P21589)", "T4 sequence (P21589 27-549 limits assumed)": "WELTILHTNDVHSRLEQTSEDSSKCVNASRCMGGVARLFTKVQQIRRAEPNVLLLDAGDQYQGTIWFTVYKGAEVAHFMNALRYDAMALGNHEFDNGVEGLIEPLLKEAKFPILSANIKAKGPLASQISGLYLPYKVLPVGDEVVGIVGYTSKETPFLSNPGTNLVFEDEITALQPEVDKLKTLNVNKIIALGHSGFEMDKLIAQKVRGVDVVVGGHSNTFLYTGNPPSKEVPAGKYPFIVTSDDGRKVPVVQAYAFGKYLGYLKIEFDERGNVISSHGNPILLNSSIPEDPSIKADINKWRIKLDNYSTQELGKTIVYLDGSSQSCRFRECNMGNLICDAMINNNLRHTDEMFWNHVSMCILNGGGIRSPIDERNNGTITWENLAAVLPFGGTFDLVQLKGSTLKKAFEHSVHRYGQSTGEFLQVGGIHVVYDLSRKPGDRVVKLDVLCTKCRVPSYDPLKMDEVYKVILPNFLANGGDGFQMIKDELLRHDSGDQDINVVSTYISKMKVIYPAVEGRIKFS", "test": "Epitope mapping by hydrogen-deuterium exchange mass spectrometry (HDX)", "conditions": "Fab in complex with CD73", "protocol": "To map the epitope of CL25, Hydrogen-deuterium exchange mass spectrometry (HDX) was performed. CD73 was incubated in deuterium oxide either alone or in complex with CL25 Fab. The deuterium exchange was carried out at 20° C. for 0 seconds, 60 seconds, 600 seconds, or 3600 seconds. The exchange reaction was quenched by low pH and the proteins were digested with pepsin/protease VIII. The deuterium levels at the identified peptides were monitored from the mass shift on LC-MS. The deuterium buildup curves over exchange time for all the peptides were plotted vs time. Peptides with significant reduction in deuterium uptakes upon binding to Fab were assigned as the epitopes for each antibody."}}}
{"molecule": "B1", "values": [{"measurement": "cell binding (GMFI)", "setting": "[1]", "value": "high potency binding"}, {"measurement": "cellular CD73 inhibition", "setting": "[2]", "value": "good potency"}, {"measurement": "cellular CD73 inhibition", "setting": "[3]", "value": "good potency"}, {"measurement": "epitope determined by HDX-MS", "setting": "[4]", "value": "TKVQQIRRAEPNVL"}]}
